Measured values from the supplement of paper PMC10567573.

B1: KLHL12 (parent)
chain: LDYTADEDGVWYSVAPMNVRRGLA
B2: SLC25A39 (parent)
chain: LTSDLYAPMVAGALARLGTVTVIS

Variants of: B1
Assay: protein stability index of a GFP-peptide fusion (GPS, HEK-293T) (PSI 1-6); higher = more stable
Settings: c terminus: a fixed tail appended
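Note: lentivirally expressed fusions sorted by FACS into six bins by GFP to DsRed ratio, PSI derived from sequencing read proportions per bin multiplied by bin number.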

Protein stability index, by site and new letter:
A5: S 1.8, H 1.93, Q 2.06, W 2.46, I 2.99, L 1.29, E 2.14, K 2.35, R 2.15, C 1.68, M 2.05, T 1.94
D6: C 2.61, G 2.36, L 2.08, E 2.16, Q 1.7, R 2.47, M 2.18, W 2.71, N 1.27
A24: E 1.87, R 1.97, D 1.82, F 2.2, T 2.11, I 1.88, V 2.26, C 1.77, W 2.46, K 2.35, P 2.24, G 2.17, L 2.77, H 2.13, N 2.25
Y12: D 3.74, L 2.02, I 1.89, C 3.07, A 3.55, Q 3.61, S 3.12, G 2.84, M 2.36, E 4.04, W 2.3, T 3.12, P 3.52, R 3.37
R20: A 2.1, L 2.26, S 2.31, M 2.4, D 2.65, Q 1.89, K 1.89, N 1.74, F 1.7, C 1.54, W 2.05, V 2.49, T 2.69, E 3.32, I 1.98, H 1.75, G 1.72
V14: W 2, F 2.18, P 2.63, Y 2.83, D 3.79, E 3.61, G 2.83, R 3.33, L 1.82, C 2.5, I 1.67, A 2.76
L1: C 2.75, Y 2.32, S 3.24, N 3.92, A 3.26, E 3.53, I 1.89, P 3.41, G 3.19, D 3.47
P16: I 1.79, K 1.95, C 1.72, A 2.33, S 1.79, T 2.62, F 1.84, H 2.57, V 1.85, Q 2.16, Y 2.56, E 3.28, M 1.88, G 2.08, N 2.24
N18: G 2.54, M 1.46, H 1.95, D 2.2, E 1.83, P 2.57, Y 2.24, F 2.19, I 2.47, A 1.92, C 1.35, S 2.01, T 1.77, L 1.97, Q 1.58
S13: D 3.34, H 3.65, P 2.57, Q 2.06, A 1.71, L 1.89, R 1.94, I 1.43, Y 2.21, G 2.69
M17: I 3.28, S 2.64, C 2.01, Q 2.46, T 2.48, K 2.71, V 2.59, Y 1.86, N 2.54, F 1.55, H 2.41
W11: S 3.62, A 3.86, M 2.72, Y 2.39, K 3.18, C 3.05, N 3.97, P 3.56, F 2.85, D 4.35, R 2.8, E 4.55, H 3.05, G 3.69, I 2.61
R21: Y 1.47, A 2.39, T 2.72, L 2.93, G 1.78, D 1.88, W 1.71, F 2.85, H 1.75, K 1.8, C 2.63, N 1.65, I 2.04
E7: S 1.8, L 2.79, I 2.43, W 2.19, D 1.46, H 1.89, Y 1.95, T 1.64, P 2.02, K 2.01, F 2.55, M 1.91, N 2.09, V 1.44
V10: L 3.09, K 3.18, A 3.22, G 3.38, T 2.82, Q 2.99, R 2.7, N 3.06, S 2.2, D 3.36, C 2.44, I 1.84, F 1.86
T4: M 2.48, F 1.7, Y 2.57, S 2.81, G 2.1, C 1.98, Q 2.45, L 4.91, E 2.69, R 1.51, I 2.12, V 1.98, K 2.57, P 3.09, N 2.24
V19: Q 2.49, W 1.66, S 2.62, H 2.98, Y 1.78, E 1.86, G 1.95, N 2.72, D 2.32, P 2.11, T 1.91, K 2.65, F 1.78, R 2.61, A 1.93, C 1.7
G9: C 1.47, E 2.33, L 1.61, Q 2.21, N 2.5, M 2.26, A 2.17, K 1.75, P 2.75, R 1.75, W 1.94, F 1.99, S 2.03
A15: Y 2.04, M 1.76, Q 2.24, D 2.32, G 2.06, I 1.76, N 2.33, W 1.57, S 1.83, E 2.29, R 2.19, P 2.76, K 2.13, H 1.7, L 2.08
G22: V 1.35, Q 2.22, F 1.51, E 2.17, P 2.21, C 2.27, D 1.79, T 2.31, N 1.62, S 1.72, R 2.15, H 1.56, Y 2.17, W 1.48, A 1.5
D8: N 1.42, R 1.56, H 1.82, A 1.67, V 1.6, S 2.69, P 2.26, W 2.1, E 2.79, L 1.73, M 1.93, F 1.21, C 2.81, Y 2.23, G 1.74
D2: Q 1.47, K 1.68, H 1.67, Y 2.43, C 2.46, W 2.19, E 1.76, F 1.98, T 1.49, M 2.4, L 1.55, S 1.84, P 2.48, G 2.96
Y3: M 2.33, T 3.01, G 3.22, Q 3.69, E 3.6, N 3.78, S 3.61, R 2.99, V 1.78, P 3.6, D 3.35, C 2.47, W 1.94, K 3.58, H 3.43
L23: A 2.68, R 2.82, D 2.46, Q 2.9, V 1.79, M 2.38, S 2.66, C 1.93, W 1.37, K 2, I 1.74

Variants of: B2
Assay: as above
Settings: c terminus: a fixed tail appended

Protein stability index, by site and new letter:
L1: A 3.53, C 2.18, D 1.76, E 2.24, G 2.72, H 2.01, I 1.96, K 2.83, M 2.2, N 2.77
